Target: T1, Control IgG1-Fc (human, UniProt P01857-1 99-330 = IgG part, limits assumed)
T1 construct: domain: Fc; also called hIg-Fc; hIgG
Experiment: ELISA, plate-coated IgG1-Fc, biotinylated B7-1

B1: human B7-1 Fc fusion protein (Fc fusion, UniProt P33681 35-242, looked up)
chain: VIHVTKEVKEVATLSCGHNVSVEELAQTRIYWQKEKKMVLTMMSGDMNIWPEYKNRTIFDITNNLSIVILALRPSDEGTYECVVLKYEKDAFKREHLAEVTLSVKADFPTPSISDFEIPTSNIRRIICSTSGGFPEPHLSWLENGEELNAINTTVSQDPETELYAVSSKLDFNMTTNHSFMCLIKYGHLRVNQTFNWNTTKQEHFPDN
notes: also called B7-1 Ig; B7-1 Ig fusion protein; not shown: Fc portion, not described
binding result: no binding
